Series [1] deals with T1, recombinant estrogen receptor alpha (rERα) (UniProt P03372 1-595). As to the kind of experiment: EMSA, supershift; HESC nuclear extract; weaker than consensus ERE, stronger than PCNA-ERE2; 25 mM Tris-HCl pH 8.0, 50 mM KCl, 6.25 mM MgCl2, 10% glycerol, 0.5 mM DTT; 5 µg HESC nuclear extract + 170 nM rERα; 5% acrylamide gel in TBE; temperature not stated. Particulars: protein: commercial; chain copies: 2; blunt. In general terms: Mobility shift assays separate free from complexed probe on a gel.

In series [2] the target is T1, recombinant estrogen receptor alpha …. Briefly: EMSA, supershift; HESC nuclear extract; 25 mM Tris-HCl pH 8.0, 50 mM KCl, 6.25 mM MgCl2, 10% glycerol, 0.5 mM DTT; 5 µg HESC nuclear extract + 170 nM rERα; 5% acrylamide gel in TBE; temperature not stated. Conditions: protein: commercial; chain copies: 2; label: 32P 5' end; blunt.

T1 sequence (P03372 whole entry): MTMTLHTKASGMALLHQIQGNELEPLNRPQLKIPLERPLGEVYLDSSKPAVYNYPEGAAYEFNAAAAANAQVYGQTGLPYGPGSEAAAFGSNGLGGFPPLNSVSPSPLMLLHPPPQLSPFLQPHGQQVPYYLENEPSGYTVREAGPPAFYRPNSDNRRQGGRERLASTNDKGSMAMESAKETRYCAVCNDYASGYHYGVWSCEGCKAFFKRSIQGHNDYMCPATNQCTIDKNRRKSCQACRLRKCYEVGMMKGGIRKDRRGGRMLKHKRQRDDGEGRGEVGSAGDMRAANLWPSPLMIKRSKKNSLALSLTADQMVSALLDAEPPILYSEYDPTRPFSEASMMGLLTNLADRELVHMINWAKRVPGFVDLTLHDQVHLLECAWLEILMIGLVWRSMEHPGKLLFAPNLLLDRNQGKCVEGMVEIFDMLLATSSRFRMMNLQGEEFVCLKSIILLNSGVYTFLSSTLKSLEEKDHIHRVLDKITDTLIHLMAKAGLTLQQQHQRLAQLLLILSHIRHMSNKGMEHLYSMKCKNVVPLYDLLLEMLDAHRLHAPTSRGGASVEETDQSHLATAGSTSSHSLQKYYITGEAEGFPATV

B1: PCNA-ERE1 (dsDNA)
DNA 1: GGGAGTTTGAGGCCAGCCTGACCAACATTG
DNA 2: CAATGTTGGTCAGGCTGGCCTCAAACTCCC
B1: the binding result in series [1] was “binds”.

B2: consensus ERE (dsDNA)
DNA 1: GGATCTAGGTCACTGTGACCCCGGATC
DNA 2: GATCCGGGGTCACAGTGACCTAGATCC
For the molecule B2, the binding result in series [2] is “binds”.

The record behind these values is article PMC2568806, “Two Estrogen Response Element Sequences Near the PCNA Gene Are Not Responsible for Its Estrogen-Enhanced Expression in MCF7 Cells”.
